From PMC2174084 (The Journal of Cell Biology, 2002) come the findings set out here.

In the assay the target is rabbit skeletal muscle actin, polymerized (F-actin) (rabbit, UniProt P68135 1-377). Put plainly: co-sedimentation.

No end group written: not given here. Some results are limits rather than exact numbers.

With LYAVGGHDGPMVRRSVEAYDCETNSWRSVADMSYCRRNAGVVAHDGL (domain or fragment, cysteine pairing not given here; also: biotin-labeled, place not given here) [Kelch repeat 5 (L594-L640)], the binding result was “binds”.
With LYAVGGHDGPMVRRSVEAYDCETNSWRSVADMSACRRNAGVVAHDGL (domain or fragment, cysteine pairing not given here; also: biotin-labeled, place not given here) [Kelch repeat 5 (L594-[Y627A]-L640)], the “percent of the protein sedimenting with actin” value (from here on “percent”) worked out at 100%.
For the molecule LYAVGGHDGPMVRRSVEAYDCETNSWRSVADMSDCRRNAGVVAHDGL (domain or fragment, cysteine pairing not given here; also: biotin-labeled, place not given here) [Kelch repeat 5 (L594-[Y627D]-L640)], the “percent” value is less than 50%.
Regarding LYAVGGHDGPMVRRSVEAYDCETNSWRSVADMSFCRRNAGVVAHDGL (domain or fragment, cysteine pairing not given here; also: biotin-labeled, place not given here) [Kelch repeat 5 (L594-[Y627F]-L640)], the “percent” value was determined as 100%.
